Consider 1 protein from FireProtDB (doi:10.1021/bi00236a021).

Several values for one entry are separate records, joined by “and”; a condition that tells them apart may be missing. Equal entries are not always repeated.

For this data set the following is noted: Escherichia coli (strain K12), whole UniProt chain shown.
Setting [1] is: pH 7, Thermal, CD, Potassium phosphate 10 mM.
Setting [2] is: pH 8, 30 °C, GdnHCl, Fluorescence, Tris-HCl 50 mM.

In general, Tm refers to the temperature at the midpoint of the melting transition.

B1: Glutaredoxin 1 wild type, P68688 (protein)
chain: MQTVIFGRSGCPYCVRAKDLAEKLSNERDDFQYQYVDIRAEGITKEDLQQKAGKPVETVPQIFVDQQHIGGYTDFAAWVKENLDA
As for B1, the unfolding free energy (pH 7, 25 °C, Thermal, CD, Potassium phosphate 10 mM) was 4.7 kcal/mol. Moreover, where the note is “pH 7, 30 °C, Thermal, CD, Potassium phosphate 10 mM”, the unfolding free energy is 4.1 kcal/mol and 5 kcal/mol. Under setting [1], the midpoint of thermal melting (Tm) was 55 °C and 57 °C; the “unfolding enthalpy (van 't Hoff)” value was 67 kcal/mol and 75 kcal/mol. Also, under setting [2], the “denaturant midpoint (higher = more stable)” value amounted to 2 M; the unfolding free energy is 4.2 kcal/mol and 6.1 kcal/mol.
